The values that follow come from the nanobody polyreactivity screen of Harvey et al. (2022).

The data set can be described thus: yeast display, Sf9 membrane polyspecificity reagent, FACS + sequencing; frameworks hold sequencing errors. In short, it runs like this: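 In a synthetic yeast display library (Saccharomyces cerevisiae BJ5465), nanobody expression was induced with galactose for 36–48 hours. FACS gates were set low and high (top ~1%) using anti-HA fluorescence for expression and streptavidin fluorescence for binding of the Sf9 membrane reagent. Each polyreactivity label is drawn from the gate of origin.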
Take “QVQLVESGGGLVQAGGSLRLSCAASGSIFYDNAMGWYRQAPGKERELVAVISNSGRTDYADSVKGRFTISRDNAKNTVYLQMNSLKPEDTAVYYCAAVVQGTTVWWGYDYWGQGTQVTVSS”: the “polyreactivity (PSR sort gate)” value is recorded as “low polyreactivity”.
With “QVQLVESGGGLVQAGGSLRLSCAASGSIFYENMGWYRQAPGKERELVASISWSGTSTYADSVKGRFTISRDNAKNTVYLQMNSLKPEDTAVYYCAAGKNGYTYSRSYSYGYWGQGTQVTVSS” the entry was “high polyreactivity”.
As for “QVQLVESGGGLVQAGGSLRLSCAASGSIFYEYAMGWYRQAPGKEREFVAAISSSGGSTYYADSVKGRFTISRDNAKNTVYLQMNSLKPEDTAVYYCAADIYYYLWGLYYWGQGTQVTVSS”, the “polyreactivity (PSR sort gate)” value was “low polyreactivity”.
For “QVQLVESGGGLVQAGGSLRLSCAASGSIFYFNAMGWYRQAPGKERELVAAINISGSSTSYADSVKGRFTISRDNAKNTVYLQMNSLKPEDTAVYYCYAGPYTYLHWNQAISRYYYWGQGTQVTVSS” the value was “low polyreactivity”; for “QVQLVESGGGLVQAGGSLRLSCAASGSIFYFNAMGWYRQAPGKERELVAAITYSGGSTYYADSVKGRFTISRDNAKNTFYLQMNILKPEDTAVYYCAAERRTFPLRIFDYWGQGTQVTVSS”, “low polyreactivity”; for “QVQLVESGGGLVQAGGSLRLSCAASGSIFYFNGMGWYRQAPGKERELVAAITWGDGSTYYADSVKGRFTISRDNAKNTVYLQMNSLKREDNAVYYCAAVLLIFKYVPRYDYWGQGTQVTVSS”, “low polyreactivity”.
For “QVQLVESGGGLVQAGGSLRLSCAASGSIFYGHAMGWYRQAPGKERELVATISWSTGSTYYADSVKGRFTISRDHAKNTVYLQMNSLKPEDTAVYYCAKEYFSKQWRGGYWGQGTQVTVSS”, the “polyreactivity (PSR sort gate)” value is “high polyreactivity”.
Regarding “QVQLVESGGGLVQAGGSLRLSCAASGSIFYGNTMGWYRQAPGKERELVAAIRSVGRTYYADSVKGRFTISRDNAKNTVYLQMNSLKPEDTAVYYCAADPRSYFTSEYWGQGTQVTVSS”, the “polyreactivity (PSR sort gate)” value is recorded as “high polyreactivity”.
Turning to “QVQLVESGGGLVQAGGSLRLSCAASGSIFYGYAMAWYRQAPGKERELVAAITRSGGSTYYADSVKGRFTISRDNAKNTVYLQMNSLKPEDTAVYYCAAVSRSRRMDYWGQGTQVTVSS”, the “polyreactivity (PSR sort gate)” value is listed as “high polyreactivity”.
For “QVQLVESGGGLVQAGGSLRLSCAASGSIFYGYAMGWYRQAPGKERELVAAITSSGTRTYYADSVKGRFTISRDNAKNTVYLQMNSLKPEDTAVYYCAADGPGYQYDYWGQGTQVTVSS” the value was “high polyreactivity”; for “QVQLVESGGGLVQAGGSLRLSCAASGSIFYGYAMGWYRQAPGKERELVAAITTSGGSTYYADSVKGRFTISRDNAKYTVYLQMNSLKPEDTAVYYCAAVTYWPGGYYWGQGTQVTVSS”, “high polyreactivity”.
For “QVQLVESGGGLVQAGGSLRLSCAASGSIFYGYDMGWYRQAPGKERELVAAITIGGGTTYYADSVKGRFTISRDNAKNTVYLQMNSLKPEDTAVYYCAAEFYYTIYSNKVGYDYWGQGTQVSVSS” the value was “high polyreactivity”; for “QVQLVESGGGLVQAGGSLRLSCAASGSIFYGYVMGWYRQAPGKERELVAAISRSGGRTYYADSVKGRFTISRDNAKNTVYLQMNSQKPEDTAVYDCNARQAGTPYKYAYYGRYYWGQGTQVTVSS”, “high polyreactivity”.
With “QVQLVESGGGLVQAGGSLRLSCAASGSIFYHYVMGWYRQAPGKDRELVAGISWSGVSTYYADSVKGLFTISRDNAKNTVYLQMNSLKPEDTAVYYCAAVYRQSRLHTFGYWGQGTQVTVSS” the entry was “high polyreactivity”.
As for “QVQLVESGGGLVQAGGSLRLSCAASGSIFYIYAMGWSRQAPGKERELVASITFSGDITYYADSVKGRFTISRDNAKNTVYLQMNSLKPEDTAVYYCNTRTPYWFKSDYWGQGTQVTVSS”, the “polyreactivity (PSR sort gate)” value is “low polyreactivity”.
With “QVQLVESGGGLVQAGGSLRLSCAASGSIFYIYAMGWYRQAPGKERELVAAINWSGGDTYYADSVKGRFTISRDNAKNTVYLQMNSLKPEDTAVYYCAALLDSEYEYWGQGTQVTVSS” the entry was “high polyreactivity”; with “QVQLVESGGGLVQAGGSLRLSCAASGSIFYIYAMGWYRQAPGKERELVAAISWSGSSTYYADSVKGRFTISRDNAKHTVYLQMNSLKPEDTAVYYCAADTGYGVRYYYWGQGTQVTVSS”, “high polyreactivity”; with “QVQLVESGGGLVQAGGSLRLSCAASGSIFYIYAMGWYRQAPGKERELVAAITSSVGRTYYADSVKGRFTISRDNAKNTFYLQMNSLKAEDTAVYYCAADYYYSQVAYVYWGHGTQVTVSS”, “high polyreactivity”.
For “QVQLVESGGGLVQAGGSLRLSCAASGSIFYKYAMGWYRQAPGKERELVAAISGSGGRTYYADSVKGRFTISRDNAKNTVYLQMNSLKPEDTAVYYCAAAKRTWRSDYWGQGTQVTVSS” the value was “high polyreactivity”; for “QVQLVESGGGLVQAGGSLRLSCAASGSIFYKYTMGWYRQAPGKERELVAAITRSGGSTYYADSVKGRFTISRDNAKNTVYLQMNSLKPEDTAVYYCAAERASFRYQDYYIYDYWGQGTQVTVSS”, “high polyreactivity”.
Regarding “QVQLVESGGGLVQAGGSLRLSCAASGSIFYLNAMGWYRQAPGKERDLVAAIRWSGGSTRYADSVKGRCTISRDNAKNTVYLQMNSLKPEDTAVYYCAKYNPVLVYHWWYYYWGQGTQVTVSS”, the “polyreactivity (PSR sort gate)” value was “high polyreactivity”.
With “QVQLVESGGGLVQAGGSLRLSCAASGSIFYLNARGWYRQAPGKERELVASINRGGITYYADSVKGRFTISRDNAKNTVYLQMNSLKPEDTAVYYCAARSPYVSYRSNYYYWGQGTQVTVSS” the entry was “high polyreactivity”; with “QVQLVESGGGLVQAGGSLRLSCAASGSIFYLYAMGWYRQAPGKERELVAAISESGSTTYYADSVKGRFTISRDNAKNTVYLQMNSLKPEDTAVYYCARLGTYTVVTYDYWGQGTQVTVSS”, “low polyreactivity”.
With “QVQLVESGGGLVQAGGSLRLSCAASGSIFYLYAMGWYRQAPGKERELVAAITSIGGSTYADSVKGRFTISRDNAKNTVYLQMYSLKPEDTAVYYCNTDEYPLTVQVQYYYWGQGTQVTVSS” the entry was “low polyreactivity”; with “QVQLVESGGGLVQAGGSLRLSCAASGSIFYNAMGWYRQAPGKERELVAAISQRGTRTYYADSVKGRFTISRDNAKKTVYLQMNSLKPEDTAVYYCNRGGWRQYDSWGQGTQVTVSS”, “high polyreactivity”.
For “QVQLVESGGGLVQAGGSLRLSCAASGSIFYNNAMGWYRQAPGKERELVAAITIGGSTNYADSVKGRFTISRDNAKNTVYLQMNSLNPEDTAVYYCAAAVLYWVGYGYWGQGTQVTVSS” the value was “low polyreactivity”; for “QVQLVESGGGLVQAGGSLRLSCAASGSIFYNYAMGWYRQAPGKEREFVAGITRSGGTTSYADSVKGRFTISRDNAKNTVYLQMNSLKPEDTAVYYCAAVVYLQAWYGYWDYYYWGQGTQVTVSS”, “high polyreactivity”.
With “QVQLVESGGGLVQAGGSLRLSCAASGSIFYPNAMGWYRQAPGKEREFVAAISKSGGNTYYADSVKGRFTISRDNAKNTVYLQMNSLKPEDTAVYYCAARTQAFSRKGYGYWGQGTQVTVSS”, the “polyreactivity (PSR sort gate)” value was “high polyreactivity”.
With “QVQLVESGGGLVQAGGSLRLSCAASGSIFYPYAMGWYRQAPGKERELLASITINDGSTYYADSVKGRFTISRDNAKNTVYLQMNSLKPEDTAVYYCNVEPVPGFGSEYEYWGQGTQVTVSS” the entry was “low polyreactivity”; with “QVQLVESGGGLVQAGGSLRLSCAASGSIFYPYAMGWYRQAPGKERELVAGITYRAGSTYYADSVKGRFTISRDNAKNTVYLQMNSLKPEDTAVYYCAASQSYAFDWGQGTQVTVSS”, “high polyreactivity”; with “QVQLVESGGGLVQAGGSLRLSCAASGSIFYPYAMGWYRQAPGKERELVATISSGGRTNYADSVKGRFTISRDNAKNTVYLQMNSLKPEDTAVYYCAKDRYPTSWWFRRRDYWGQGTQVTVSS”, “high polyreactivity”.
With “QVQLVESGGGLVQAGGSLRLSCAASGSIFYPYAMGWYRQAPGKERQLVAAISYSGGSTYYADSVKGRFTISRDNAKNTVYLQMNSLKPEDTAVYYCAADVTAGDGRNDYWGIGTQVTVSS” the entry was “low polyreactivity”.
With “QVQLVESGGGLVQAGGSLRLSCAASGSIFYPYTMGWYRQAPGKEREFVAAITGGGGRTYYADSVKGRFTISRDNAKNTVYLQMNSLKPEDTAVYYCATDTYDVNVWELGMDYWGQGTQVTVSS” the entry was “low polyreactivity”.
For “QVQLVESGGGLVQAGGSLRLSCAASGSIFYPYTMGWYRQAPGKETEFVARITWSGGSTYYADSVKGRFTISRDNAKNTVYLQMNSLKPEDSAVYYCARVAWSESDWQKMDYWGQGTQVTVSS”, the “polyreactivity (PSR sort gate)” value is reported as “high polyreactivity”.
For “QVQLVESGGGLVQAGGSLRLSCAASGSIFYQNALGWYRQAPGKETELVAAMSRSGGSTYYADSVKGRFTISRDNAKNTVYLQMNSLKPEDTAVYYCAARISRQRSYSRDYWGQGTQVTVSS” the value was “high polyreactivity”.
With “QVQLVESGGGLVQAGGSLRLSCAASGSIFYRNAMGWYRQAPGKERELVAAISASGGSTYYADSVKGRFTISRDNAKNTVYLQMNSLKPEDTAVYYCAASRYYSRYDYWGQGTQVTVSS” the entry was “high polyreactivity”.
In the case of “QVQLVESGGGLVQAGGSLRLSCAASGSIFYRNAMGWYRQAPGKERELVAAISGRGGSTYYADSVKGRFTISRDYAKNTVYLQMYSLKPEDTAVYYCAKDHYRERKYDYWGQGTQVTVSS”, the “polyreactivity (PSR sort gate)” value is listed as “low polyreactivity”.
On to “QVQLVESGGGLVQAGGSLRLSCAASGSIFYRNAMGWYRQAPGKERELVAAISRSGGSTYYADSVKGRFTISRDNAKNTVYLQMNSLKPEDTAVYYCAKARPLGGTPSNGFDYWGQGTQVTVSS”, for which the “polyreactivity (PSR sort gate)” value is “high polyreactivity”.
With “QVQLVESGGGLVQAGGSLRLSCAASGSIFYRNAMGWYRQAPGKERELVAAITRSDGRTYYADSVKGRFTISRDNAKNTVYLQMNSLKPEDTAVYYCNADHPFPQYEGGSWGQGTQVTVSS” the entry was “low polyreactivity”.
With “QVQLVESGGGLVQAGGSLRLSCAASGSIFYRNRMGWYRQAPGKERELVAAIRYSGDNTYYADSVKGRFTISRDNAKNTVYLQMNSLKPEDTAVYYCAADFPDYEYWGQGTQVTVSS” the entry was “high polyreactivity”; with “QVQLVESGGGLVQAGGSLRLSCAASGSIFYRNTMGWYRQAPGKERELVAAITYSGGSTYYADSVKGRFTISRDNAKNTVYLQMNSLKPEDTAVYYCAVTDFYSYLLRYDSWGQGTQVTVSS”, “low polyreactivity”.
